Source: publication PMC5115829, “Digitor/dASCIZ Has Multiple Roles in Drosophila Development” (PLoS ONE, 2016)

Molecular target: T1, His-tagged COOH-terminal fragment of Digitor containing the six TQT motifs (amino acids 256 to 388) (Drosophila, UniProt Q9VZU1 256-388)
T1 construct: Digitor/dASCIZ (CG14962), Drosophila, residues 256-388, holds the six TQT motifs; full length is aa 1-388; Purification is not described; 10 ug amounts are stated; also called Digitor-His; His-Digitor; source: expressed in BL21 cells (pET28a)
T1 sequence (looked up): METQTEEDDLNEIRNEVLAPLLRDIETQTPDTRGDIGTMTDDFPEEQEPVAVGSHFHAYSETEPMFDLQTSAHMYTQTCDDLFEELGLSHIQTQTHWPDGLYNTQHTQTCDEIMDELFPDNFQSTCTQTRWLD
Assay: pull-down; MBP-Cut up or MBP alone bound to amylose resin, incubated with His-tagged Digitor in 1X PBS pH 7.4, 4 hr, 4°C; 5 washes; immunoblot with anti-His antibody
Settings: both partners purified

B1: full length Cut up MBP fusion protein (amino acids 1-89) (natural protein, Drosophila, UniProt Q24117 1-89, looked up)
chain: MSDRKAVIKNADMSEEMQQDAVDCATQALEKYNIEKDIAAYIKKEFDKKYNPTWHCIVGRNFGSYVTHETRHFIYFYLGQVAILLFKSG
notes: Cut up, the Dynein light chain (DYNLL1 homolog) of Drosophila, full-length cDNA encoding amino acids 1-89; Purification is not described; 10 ug amounts are stated; also called MBP-Cut-up; MBP-Cut up; source: expressed in BL21 cells (pMAL-C2X)
  binding result: binds
